Data: patent publication US20130012690

Biological target: Tfl-bZip (GCN4 residues 226-281, leucine zipper leucines replaced with 5,5,5-trifluoroleucine) Leu to 5,5,5-trifluoroleucine in the GCN4-p1 dimerization domain (four d-position leucines) (UniProt P03069)
Assay: EMSA

Tfl-bZip (GCN4 residues 226-281, leucine zipper leucines replaced with 5,5,5-trifluoroleucine) Leu to 5,5,5-trifluoroleucine in the GCN4-p1 dimerization domain (four d-position leucines), sequence (P03069 whole entry, the tested form may be a part): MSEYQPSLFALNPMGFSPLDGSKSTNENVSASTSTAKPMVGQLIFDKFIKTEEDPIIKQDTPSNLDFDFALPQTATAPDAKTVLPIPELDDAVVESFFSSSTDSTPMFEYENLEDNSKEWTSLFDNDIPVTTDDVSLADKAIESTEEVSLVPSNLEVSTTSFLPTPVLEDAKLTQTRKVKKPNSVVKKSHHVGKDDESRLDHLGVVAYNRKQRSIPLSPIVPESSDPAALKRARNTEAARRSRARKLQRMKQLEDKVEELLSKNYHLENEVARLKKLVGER

Sequence | Kd (densitometry of mobility shift assay) | Kd (densitometry, CD at 0 C also shows coil-to-helix transition on DNA binding)
GTGGAGATGACTCATCTCCGG (double strand) [AP-1 site oligonucleotide] | 12.5 nM | –
TGGAGATGACGTCATCTCCT (double strand) [CREB site oligonucleotide] | – | 5.4 nM
